Results as given in patent publication US20210238304A1.
Several values for one entry are separate records, joined by “and”; a condition that tells them apart may be missing. Identical values can stand only once.

B1: 201C15 (rabbit-human chimeric anti-human mesothelin antibody) (antibody, from another filing, V domains shown)
VH: QSVKESGGRLVTPGTPLTLTCTVSGIDLSSYAMGWFRQAPGKGLEYIGTINIGGRVYYASWAKGRFTISRTSTTVDLKAPSLTAEDTATYFCARYYNGGSYDIWGPGTLVTVSL
VL: DVVMTQTPASASEPVGGTVTIKCQASESIYRVLAWYQQKPGQPPKLLIYDTSTLASGAPSRFKGSGYGTEFTLTISGVQCEDAATYYCQGGYYADSYGIAFGGGTEVVVKR
B2: 33O11 zu (humanized anti-human mesothelin antibody) (antibody, from another filing, V domains shown)
VH: EVQLVESGGGLVQPGGSLRLSCAASGISLSSDAISWVRQAPGKGLEYIGIINGGGNTYYASWAKGRFTISRHNSKNTLYLQMNSLRAEDTAVYYCARGIQHGGGNSDYYYYGMDLWGQGTLVTVSS
VL: DIQMTQSPSSLSASVGDRVTITCQASQSISSVLSWYQQKPGKAPKLLIYLASTLASGVPSRFSGSGSGTDFTLTISSLQCEDIATYYCQTNYGTSSSNYGFAFGGGTKVEIKR
B3: 111B10 (rabbit-human chimeric anti-human mesothelin antibody) (antibody, from another filing, V domains shown)
VH: QSVEESGGRLVTPGTPLTLTCTVSGFSLNNYAMSWVRQAPGKGLEWIGSISTGGLAFYANWAKGRFTISRTSTTVDLKMTSLTTEDTATYFCGRNGGGSYIFYYFDLWGQGTLVTVSS
VL: AFELTQTPSSVEAAVGGTITIKCQASQSISSYLSWYQQKPGQPPKLLIYSASTLASGVSSRFKGSGSGTEYTLTISDLECADAATYFCQSYYDIGTSTFGGGTEVVVKR
B4: 346C6 (rabbit-human chimeric anti-human mesothelin antibody) (antibody, from another filing, V domains shown)
VH: QSVEESGGRLVKPDESLTLTCTASGFSLSSYAMIWVRQAPGEGLEWIGTISTGGITYYASWAKGRFTISKTSTTVDLKITSPTTEDTATYFCARGGYAASSAYYLPYYFDLWGQGTLVTVSS
VL: AAVLTQTPSPVSAAVGGTVTISCQSSQSVYNNNNLAWFQQKPGQPPKLLIYLASTLASGVPSRFSGSGSGTQFTLTISGVQCDDAATYYCLGGCDDDADTFAFGGGTEVVVKR

How the values were obtained:
[1] = target: human mesothelin (recombinant, soluble) (human) (UniProt Q13421); test: SPR BIAcore, captured mAb, mesothelin analyte
human mesothelin (recombinant, soluble) (human), sequence (Q13421 other isoform, or with tags, fused parts or gaps limits assumed): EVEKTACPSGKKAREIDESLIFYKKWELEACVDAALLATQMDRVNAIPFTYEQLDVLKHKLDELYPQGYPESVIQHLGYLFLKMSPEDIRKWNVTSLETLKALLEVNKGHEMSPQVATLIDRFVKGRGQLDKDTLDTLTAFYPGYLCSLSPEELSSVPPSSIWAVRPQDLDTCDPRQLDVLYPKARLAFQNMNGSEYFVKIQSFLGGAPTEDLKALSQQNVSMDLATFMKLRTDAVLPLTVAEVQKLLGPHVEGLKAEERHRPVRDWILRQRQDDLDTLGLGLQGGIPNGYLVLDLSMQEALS

[2] = target: human mesothelin (recombinant, soluble) (human) (UniProt Q13421); test: SPR BIAcore, parental mAb captured, mesothelin analyte

| Binder | Kd [1] | koff [1] | Kd [2] [nM] | koff [2] [s⁻¹] | kon [2] [M⁻¹ s⁻¹] | kon [1] |
| --- | --- | --- | --- | --- | --- | --- |
| B1 | 0.47 nM and 0.131 nM | 0.000129 s⁻¹ and 0.000345 s⁻¹ | 1.1 | 0.00026 | 240000 | – |
| B2 | – | – | 3.4 | 0.00065 | 220000 | – |
| B3 | – | – | 6.3 | 0.0039 | 650000 | – |
| B4 | 0.706 nM and 0.529 nM | 0.000481 s⁻¹ and 0.000609 s⁻¹ | 1.4 | 0.00049 | 380000 | 682000 M⁻¹ s⁻¹ and 1.15e+06 M⁻¹ s⁻¹ |
